{
  "source": "patent US20120114630",
  "target": "recombinant staphylokinase SAK-SY162",
  "data": [
    {"protein": "microplasminogen variant Lys137Met (K137M) (protein) APSFDCGKPQVEPKKCPGRVVGGCVAHPHSWPWQVSLRTRFGMHFCGGTLISPEWVLTAAHCLEKSPRPSSYKVILGAHQEVNLEPHVQEIEVSRLFLEPTRKDIALLKLSSPAVITDKVIPACLPSPNYVVADRTECFITGWGETQGTFGAGLLMEAQLPVIENKVCNRYEFLNGRVQSTELCAGHLAGGTDSCQGDSGGPLVCFEKDKYILQGVTSWGLGCARPNKPGVYVRVSRFVTWIEGVMRNN", "values": [
      {"measurement": "conversion of inactive microplasminogen into active microplasmin, HPLC profile 10 min after addition of staphylokinase", "result": "~85", "unit": "%"}
    ]}
  ]
}
